# Results taken from paper PMC12426278.
# Legend:
# [1] = molecular target: huCD147-Strep (soluble extracellular domain of human CD147, Strep-tag II) (human); assay: BLI; Octet Red96e; […] (20 μg/mL) […]; 25 mM HEPES, 150 mM NaCl pH 7.5, 0.04% Tween-20; global 1:1 model
# [2] = molecular target: huCD147mt-Strep (glycosylation-deficient soluble extracellular domain of human CD147, Strep-tag II) (human); assay: as above
Substance,Kd [1] [nM],Kd [2] [nM]
[change] (soluble extracellular domain of H1N1 HA) (from UniProt P03452 18-528) (domain or fragment),700,500
[change] (soluble extracellular domain of H9N2 HA) (domain or fragment),310,200
